Biological target: mouse IL-12 (p40/p35 heterodimer) (mouse) (UniProt P43432)
Assay: cell-based or functional assay

Sequence of mouse IL-12 (p40/p35 heterodimer) (mouse) (P43432 23-335, chain 1 of 2): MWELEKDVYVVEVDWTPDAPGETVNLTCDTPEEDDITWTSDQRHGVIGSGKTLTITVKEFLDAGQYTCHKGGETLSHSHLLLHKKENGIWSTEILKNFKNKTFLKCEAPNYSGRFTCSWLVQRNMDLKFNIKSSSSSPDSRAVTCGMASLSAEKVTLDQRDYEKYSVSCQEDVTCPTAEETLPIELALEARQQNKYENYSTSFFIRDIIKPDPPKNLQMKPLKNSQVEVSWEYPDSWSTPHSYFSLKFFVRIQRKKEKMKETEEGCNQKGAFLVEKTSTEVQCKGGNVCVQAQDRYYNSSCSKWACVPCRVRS
Sequence of mouse IL-12 (p40/p35 heterodimer) (mouse) (P43431 23-215, chain 2 of 2, further chain): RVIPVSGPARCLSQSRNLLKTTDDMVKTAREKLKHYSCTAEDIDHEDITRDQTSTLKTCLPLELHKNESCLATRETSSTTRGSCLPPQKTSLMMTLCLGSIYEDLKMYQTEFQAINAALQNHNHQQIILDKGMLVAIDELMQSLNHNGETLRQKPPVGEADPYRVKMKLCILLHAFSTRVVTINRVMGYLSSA

in vitro neutralization of IL-12 (times (against the anti-p35 mAb)): 5
Substance: C17.8 (rat anti-mouse IL-12/IL-23p40, IgG2a) (antibody)
